In patent US20080160617A1, “AGENT FOR INDUCING EMBRYONIC STEM CELL TO ECTODERMAL CELL, METHOD FOR OBTAINING THE SAME, AND USE OF THE SAME” (KYOWA HAKKO KOGYO CO., LTD., priority 2001, published 2008):

What was measured:
[1] = tested on: ES cell EB5; experiment: Mesodermal marker staining of colonies from ES cell/PA6 coculture in BMP4-added serum-free medium; type: cell-based, mouse; conditions: 0.5 nmol/l BMP4-added serum-free medium, coculture with PA6 cell, 8 days
From the text: A medium was produced by adding 0.5 nmol/l of BMP4 (manufactured by R & D) to the serum-free medium described in Reference Example 1. Using the thus produced BMP4-added serum-free medium instead of the serum-free medium used in Reference Example 1, the ES cell EB5 and PA6 cell were cocultured according to the method described in Reference Example 1. That is, the PA6 cell proliferated to almost confluent on a 3 cm tissue culture dish was used as a feeder cell, the ES cell was inoculated onto the feeder cell at a density of 200 cells/dish, medium exchange was carried out with a fresh medium on the 4th, 6th and 7th days, and the cells were cultured at 37° C. for 8 days in a stream of 5% carbon dioxide in a CO2 incubator.
Eight days after coculturing, the cells were fixed according to the method described in Reference Example 1, and colonies formed as a result of coculturing of the ES cell and PA6 cell were immunologically stained with the anti-NCAM antibody, the anti-E cadherin antibody, an MF20 antibody which recognizes mesodermal cells (manufactured by Developmental Studies Hybridoma Bank) and an antibody against PDGF receptor α or Flk1 whose expression are observed in mesodermal cells (S. I. Nishikawa et al., Development, 125, 1747 (1998)).

[2] = tested on: ES cell EB5; experiment: Coculture of ES cell EB5 with PA6 cell in BMP4-added serum-free medium, immunological staining; type: cell-based, mouse
Method: A medium was prepared by adding 0.5 nmol/l BMP4 (manufactured by R & D) to the serum-free medium described in Reference Example 1. The ES cell EB5 was cocultured with PA6 cell according to the method described in Reference Example 1, using the thus produced BMP4-added serum-free medium instead of the serum-free medium used in Reference Example 1. Eight days after culturing, immunological cell staining was carried out by using the anti-NCAM antibody, the anti-nestin antibody or an antibody against a non-neural ectoderm cell marker E cadherin (manufactured by Takara Shuzo). As a control, coculturing was carried out in the serum-free medium without BMP4.
Also, 8 days after culturing in the BMP4-added serum-free medium, the medium was changed to Glasgow MEM medium containing 10% fetal bovine serum (manufactured by GIBCO BRL), followed by culturing for 3 days. The thus cultured cells were fixed for 30 minutes by adding 4% paraformaldehyde and immunologically stained with an antibody against a skin epidermis cell marker keratin 14 (manufactured by Biomedia), and the results were compared with those in which culturing was continued for additional 3 days in the bovine serum-free medium, with the results shown in FIGS. 9G, H and I.

[3] = tested on: ES cell EB5; experiment: Effects of shh and BMP4 on dorso-ventral neural markers in ES cell EB5/PA6 coculture; type: cell-based, mouse; conditions: shh 300 nmol/l or BMP4 0.5 nmol/l added at medium exchange on 4th, 6th, 8th days; 10 days coculture with PA6
Method: According to the method described in Reference Example 1, the ES cell EB5 was cultured for 10 days in the serum-free medium without BMP4 by using the PA6 cell as a feeder cell. That is, the PA6 cell proliferated to almost confluent on a 3 cm tissue culture dish was used as a feeder cell, the ES cell was inoculated onto the feeder cell at a density of 200 cells/dish, the medium was exchanged with a fresh serum-free medium on the 4th, 6th and 8th days, and the cells were cultured at 37° C. for 10 days in a 5% CO2 incubator.
Effects of shh were evaluated according to the similar method described above, by using a serum-free medium to which 300 nmol/l of shh (manufactured by R & D) had been added at the time of the medium exchange on the 4th, 6th and 8th days.
Effects of BMP4 were evaluated according to the similar method described above, by using a serum-free medium to which 0.5 nmol/l of BMP4 (manufactured by R & D) had been added at the time of the medium exchange on the 4th, 6th and 8th days.
Ten days after coculturing, the cells cultured by respective culturing methods were fixed according to the method described in Reference Example 1, and the colonies formed as a result of coculturing of the ES cell with PA6 cell were immunologically stained with the anti-NCAM antibody, an antibody against HNF-3β which is a marker of the basal plate existing on the most ventral side of the central nervous system primordium (neural tube) (purchased from Developmental Studies Hybridoma Bank), an antibody against Nkx2.2 as a marker existing secondary to the HNF-3β from the ventral side (purchased from Developmental Studies Hybridoma Bank), an antibody against Pax-7 as a marker of the neural tube dorsal side (purchased from Developmental Studies Hybridoma Bank), an antibody against AP-2 as a marker of the neural crest cell (purchased from Developmental Studies Hybridoma Bank), an antibody against islet 1 as a marker of motor neuron (purchased from Developmental Studies Hybridoma Bank) and an antibody against VAchT which is a marker of cholinergic neuron (manufactured by Chemicon).

[4] = tested on: embryonic stem cell; conditions: cited from earlier work
[5] = tested on: ES cell EB5; experiment: Nerve differentiation of ES cell EB5 by solution recovered from PA6 cell with polyanion-containing Hanks' balanced salt solution (SDIA activity); type: cell-based, mouse; conditions: SFRP 1 removed with anti-SFRP 1 polyclonal antibody on protein G Sepharose, 4° C., 15 hours; compared with untreated solution
Method: ES cell EB5 (H. Niwa et al., Nature Genet., 24, 372 (2000); obtained from Dr. Hitoshi Niwa at the Molecular Control Medical Science Course, Medical School, Osaka University) was used as the embryonic stem cell, and an MC3T3-G2/PA6 cell (H. Kodama et al., J. Cell Physiol., 112) 89 (1982), hereinafter referred to as “PA6 cell”) as the stromal cell, and the ES cell EB5 was cultured in accordance with the method described in Reference Example 1 and used in the test.
Cells of PA6 cultured to almost confluent state on a dish of 10 cm in diameter were washed twice with 10 ml of PBS(−) (manufactured by Invitrogen) and once with 10 ml of Hanks' balanced salt solution (manufactured by Invitrogen), 3 ml of Hanks' balanced salt solution containing from 0.001% (w/v) to 0.1% (w/v) of heparin (manufactured by Nacalai Tesque) was added thereto, the mixture was allowed to stand at 37° C. for 30 minutes, and the solution was recovered. The solution obtained was added to the PA6 on the 10 cm, dish washed in the same manner described above, the mixture was allowed to stand at 37° C. for 30 minutes in the same manner, and then the solution was recovered. This process was carried out on PA6 on the other 10 cm dish, and effect of the recovered solution ES cell was examined. […]

[6] = 0.5 nmol/l BMP4-added serum-free medium, coculture with PA6 cell, 8 days

B1: BMP4: bone morphogenetic protein 4, dorsal factor of neural tube (manufactured by R & D) (protein, UniProt P12644 293-408, looked up)
Bone morphogenetic protein 4: SPKHHSQRARKKNKNCRRHSLYVDFSDVGWNDWIVAPPGYQAFYCHGDCPFPLADHLNSTNHAIVQTLVNSVNSSIPKACCVPTELSAISMLYLDEYDKVVLKNYQEMVVEGCGCR
Question: With B1 as the molecule, how does the “colonies stained with mesodermal cell markers PDGF receptor α, Flk1 and MF20, of the total colonies” value [1] read?
Answer: ≤ 5%

Question: And the “anti-NCAM antibody staining of ES cell-derived colonies” value [2, 6]?
Answer: anti-NCAM antibody-negative

Question: And the “anti-nestin antibody staining of ES cell-derived colonies” value [2, 6]?
Answer: anti-nestin antibody-negative

Question: What about the “frequency of E cadherin-positive colonies” value [2, 6] of the same molecule?
Answer: 98%

Question: And the “frequency of keratin 14-positive colonies” value ([2]; 8 days in BMP4-added serum-free medium, then 3 days in Glasgow MEM medium containing 10% fetal bovine serum)?
Answer: 47%

Question: What about the “frequency of keratin 14-positive colonies” value ([2]; BMP4-added serum-free medium throughout (8 days plus additional 3 days serum-free)) of the same molecule?
Answer: 34%

Question: What about the “ratio of ES cell-derived colonies stained with Anti-AP-2 antibody” value [3] of the same molecule?
Answer: 24%

Question: And the “ratio of ES cell-derived colonies stained with Anti-HNF-3β antibody” value [3]?
Answer: 9%

Question: What about the “ratio of ES cell-derived colonies stained with Anti-NCAM antibody” value [3] of the same molecule?
Answer: 90%

Question: And the “ratio of ES cell-derived colonies stained with Anti-Nkx2.2 antibody” value [3]?
Answer: 19%

Question: What about the “ratio of ES cell-derived colonies stained with Anti-Pax-7 antibody” value [3] of the same molecule?
Answer: 72%

Question: What about the “ratio of ES cell-derived colonies stained with Anti-VAchT antibody” value [3] of the same molecule?
Answer: 42%

Question: And the “ratio of ES cell-derived colonies stained with Anti-islet 1 antibody” value [3]?
Answer: 36%

B2: FGF-8: fibroblast growth factor 8 (protein, UniProt P55075 23-233, looked up)
Fibroblast growth factor 8: QEGPGRGPALGRELASLFRAGREPQGVSQQHVREQSLVTDQLSRRLIRTYQLYSRTSGKHVQVLANKRINAMAEDGDPFAKLIVETDTFGSRVRVRGAETGLYICMNKKGKLIAKSNGKGKDCVFTEIVLENNYTALQNAKYEGWYMAFTRKGRPRKGSKTRQHQREVHFMKRLPRGHHTTEQSLRFEFLNYPPFTRSLRGSQRTWAPEPR
Question: For B2, which “SDIA-like activity to induce differentiation of embryonic stem cell into ectoderm system cells” value [4] is on record?
Answer: no SDIA-like activity

B3: IL-11: interleukin 11 (protein, UniProt P20809 22-199, looked up)
Interleukin-11: PGPPPGPPRVSPDPRAELDSTVLLTRSLLADTRQLAAQLRDKFPADGDHNLDSLPTLAMSAGALGALQLPGVLTRLRADLLSYLRHVQWLRRAGGSSLKTLEPELGTLQARLDRLLRRLQLLMSRLALPQPPPDPPAPPLAPPSSAWGGIRAAHAILGGLHLTLDWAVRGLLLLKTRL
Question: With B3 as the molecule, how does the “SDIA-like activity to induce differentiation of embryonic stem cell into ectoderm system cells” value [4] read?
Answer: no SDIA-like activity

B4: SFRP 1: mouse-derived secreted frizzled-related protein 1 (SEQ ID NO:7), about 38 kDa band identified in solution having SDIA activity (protein, listed as Mus musculus)
chain: MGVGRSARGRGGAASGVLLALAAALLAAGSASEYDYVSFQSDIGSYQSGRFYTKPPQCVDIPVDLRLCHNVGYKKMVLPNLLEHETMAEVKQQASSWVPLLNKNCHMGTQVFLCSLFAPVCLDRPIYPCRWLCEAVRDSCEPVMQFFGFYWPEMLKCDKFPEGDVCIAMTPPNTTEASKPQGTTVCPPCDNELKSEAIIEHLCASEFALRMKIKEVKKENGDKKIVPKKKKPLKLGPIKKKELKALVLFLKNGADCPCHQLDNLSHNFLIMGRKVKSQYLLTAIHKWDKKNKEFKNFMKRMKNHECPTFQSVFK
Question: With B4 as the molecule, how does the “SDIA activity of solution after removal of SFRP 1” value [5] read?
Answer: decrease of SDIA activity was observed

B5: GDNF: glial cell-line derived neurotrophic factor (protein, UniProt P39905 78-211, looked up)
Glial cell line-derived …: SPDKQMAVLPRRERNRQAAAANPENSRGKGRRGQRGKNRGCVLTAIHLNVTDLGLGYETKEELIFRYCSGSCDAAETTYDKILKNLSRNRRLVSDKVGQACCRPIAFDDDLSFLDDNLVYHILRKHSAKRCGCI
Question: Which “SDIA-like activity to induce differentiation of embryonic stem cell into ectoderm system cells” value [4] does the source give for B5 here?
Answer: no SDIA-like activity
